Assay [1] concerns the target T1, DS-Cav1 (RSV control) (UniProt P03420 26-513).
T1 construct: also called RSV F protein; RSV F
Put plainly: Octet biolayer interferometry, bottom panel titled 'anti-DS-Cav1-dn5B specificity'; format and concentrations not given. (In general: Biolayer interferometry detects binding as a change in optical thickness at a sensor tip.)

For assay [2], the target named is T2, hMPV F protein on hMPV/A virus (human metapneumovirus, subtype A, UniProt Q6WB98 19-539). As to the kind of experiment: cell-based or functional assay.
For assay [3], the target named is T3, hMPV033 antigen (ectodomain 1-472 of the UT-A CL-28 hMPV F mutant fused to I53-50A) (human metapneumovirus, A strain).
T3 construct: A 6-Gly linker replaces the F1/F2 cleavage site; The stabilising mutations T127C, N153C, A185P, V231I, L219K, G294E, T365C and V463C are already in the entry; A GS linker and I53-50A follow; also called hMPV033 F protein; I53-50A-hMPV033
T3 chain: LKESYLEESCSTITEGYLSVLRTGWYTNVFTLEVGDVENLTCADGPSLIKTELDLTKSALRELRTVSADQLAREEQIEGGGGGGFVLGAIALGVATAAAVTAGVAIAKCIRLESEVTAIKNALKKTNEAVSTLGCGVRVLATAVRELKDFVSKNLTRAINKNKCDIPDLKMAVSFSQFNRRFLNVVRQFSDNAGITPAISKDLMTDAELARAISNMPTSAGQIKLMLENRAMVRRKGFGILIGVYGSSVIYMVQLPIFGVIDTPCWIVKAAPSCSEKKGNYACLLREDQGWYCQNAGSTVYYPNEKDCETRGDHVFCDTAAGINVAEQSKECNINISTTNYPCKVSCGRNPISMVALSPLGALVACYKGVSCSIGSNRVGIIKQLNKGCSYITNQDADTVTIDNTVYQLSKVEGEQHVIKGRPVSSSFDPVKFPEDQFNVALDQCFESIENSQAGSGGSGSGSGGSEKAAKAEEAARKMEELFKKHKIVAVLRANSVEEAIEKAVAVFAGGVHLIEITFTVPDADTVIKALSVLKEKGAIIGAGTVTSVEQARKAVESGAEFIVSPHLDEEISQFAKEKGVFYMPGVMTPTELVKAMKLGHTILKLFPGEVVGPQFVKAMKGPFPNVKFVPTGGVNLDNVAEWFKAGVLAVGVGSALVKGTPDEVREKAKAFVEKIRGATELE
Put plainly: BLI (Octet).

The target of assay [4] is T2, hMPV F protein on hMPV/A virus. Put plainly: cell-based or functional assay. This is another data set of the same source.
Assay [5] has as its target T3, hMPV033 antigen (ectodomain 1-472 of …). As to the kind of experiment: Octet biolayer interferometry: mouse antibody captured on Protein G biosensors, CompA-hMPV033 (panel title 'Pre Fusion hMPV-F') at 10 µg/mL in solution, 120 s association and 120 s dissociation.
The target in assay [6] is T1, DS-Cav1 (RSV control). Put plainly: Octet biolayer interferometry, bottom panel titled 'anti-DS-Cav1-CompA specificity'; format and concentrations not given.
For assay [7], the target named is T3, hMPV033 antigen (ectodomain 1-472 of …). As to the kind of experiment: summary of characterisation.
Assay [8] has as its target T1, DS-Cav1 (RSV control). Put plainly: Octet biolayer interferometry, bottom panel titled 'anti-DS-Cav1-CompA specificity'; format and concentrations not given. This is another data set of the same source.

B1: 17D10 hIgG1 (antibody, V domains shown)
VH: QVQLQQPGAELVKPGASVKMSCKASGYTFTSYWITWVKQRPGQGLEWIGDIYPGSGSITYNEKFKTKATLTVDTSSSTAYMQLNSLTSEDSAVYYCAGLLRLTFDVWGTGTTVTVSS
VL: DIQLTQTTSSLSASLGDRVTISCRASQDISNYLNWYQQKPDGTVKLLISYTSGLHSGVPSRFSGSGSGTDYSLTISNLEQEDIATYFCQQGNTLPWTFGGGTKLEIKR
notes: Recombinant form with human IgG1 Fc; also called Human 17D10 mAB; 171D10 hIgG1
As to B1, the binding result in assay [1] was “no binding”. Also, in assay [2], the “IC50, final serum dilution” value stood at 0.0345 mg/L; the “IC50, original serum dilution” value is 0.138 mg/L; the “hMPV/A RL Bx Titer (Log 2), microneutralization assay” value was found to be 10.5 log2. The binding result in assay [3] is recorded as “binds”.

B2: 17E10 (antibody, mouse IgG1, V domains shown)
VH: QVQLQQPGAELVKPGASVKMSCKASGYTFTSYWITWVKQRPGQGLEWIGDIYPGSGSITYNEKFKTKATLTVDTSSSTAYMQLNSLTSEDSAVYYCAGLLRLTFDVWGTGTTVTVSS
VL: DIQLTQTTSSLSASLGDRVTISCRASQDISNYLNWYQQKPDGTVKLLISYTSGLHSGVPSRFSGSGSGTDYSLTISNLEQEDIATYFCQQGNTLPWTFGGGTKLEIK
For B2, the “hMPV/A neutralization assay titer, supernatant” value in assay [4] was over 5 log2.

B3: 17D10 (mouse) (antibody, V domains shown)
VH: QVQLQQPGAELVKPGASVKMSCKASGYTFTSYWITWVKQRPGQGLEWIGDIYPGSGSITYNEKFKTKATLTVDTSSSTAYMQLNSLTSEDSAVYYCAGLLRLTFDVWGTGTTVTVSS
VL: DIQLTQTTSSLSASLGDRVTISCRASQDISNYLNWYQQKPDGTVKLLISYTSGLHSGVPSRFSGSGSGTDYSLTISNLEQEDIATYFCQQGNTLPWTFGGGTKLEIK
notes: Mouse IgG1 / kappa; also called Mouse 17D10 mAB; 17D10 mIgG
Consider B3, for which the binding result in assay [1] was “no binding”. In addition, the binding result in assay [5] is reported as “binds”. For the same molecule, in assay [4], the “hMPV/A neutralization assay titer, supernatant” value was over 5 log2. Further, in assay [2], the “IC50, final serum dilution” value was 0.0488 mg/L; the “IC50, original serum dilution” value was 0.195 mg/L; the “hMPV/A RL Bx Titer (Log 2), microneutralization assay” value is 10 log2.

B4: 13E10 (mouse) (antibody, V domains shown)
VH: EVKLVESGGGLVQPGGSLSLSCAASGFTFTDYYMNWVRQPPGKALEWLGFIRNKDNGYTTEYSASVKGRFTISRDNSQSILYLQMNALRAEDSATYYCTRYYFGYDGDYFDYWGQGTTLTVSS
VL: EIVLTQSPTTMAASPGEKITITCSASSSISSNYLHWYQQKAGFSPKLLIYRTSNLASGVPARFSGSGSGTSYSLTIGTMEAEDVATYYCQQGSSLPRTFGGGTKLEIK
notes: Mouse IgG1 / kappa; also called 13E10 mIgG
Take B4: the binding result in assay [6] is “no binding”. For the same molecule, the binding result in assay [5] was “binds”. In addition, the “hMPV/A neutralization assay titer, supernatant” value in assay [4] is over 5 log2. For the same molecule, in assay [2], the “IC50, final serum dilution” value was 0.195 mg/L; the “IC50, original serum dilution” value is 0.781 mg/L; the “hMPV/A RL Bx Titer (Log 2), microneutralization assay” value came out at 8 log2.

B5: 13E10 hIgG1 (antibody, V domains shown)
VH: EVKLVESGGGLVQPGGSLSLSCAASGFTFTDYYMNWVRQPPGKALEWLGFIRNKDNGYTTEYSASVKGRFTISRDNSQSILYLQMNALRAEDSATYYCTRYYFGYDGDYFDYWGQGTTLTVSS
VL: EIVLTQSPTTMAASPGEKITITCSASSSISSNYLHWYQQKAGFSPKLLIYRTSNLASGVPARFSGSGSGTSYSLTIGTMEAEDVATYYCQQGSSLPRTFGGGTKLEIKR
notes: Recombinant form with human IgG1 Fc
Turning to B5, the binding result in assay [6] is reported as “no binding”. For the same molecule, the binding result in assay [7] is reported as “binds”. For the same molecule, in assay [2], the “IC50, final serum dilution” value came to 0.0977 mg/L; the “IC50, original serum dilution” value is 0.391 mg/L; the “hMPV/A RL Bx Titer (Log 2), microneutralization assay” value was found to be 9 log2.

B6: 42C2 (mouse) (antibody, V domains shown)
VH: QVTLKESGPGILQPSQTLSLTCSFSGFSLSTFGMGVVWTRQPSGKGLEWLAHIWWDDDNYYNPALKSRLTISKDTSKNQVFLKIANADTADTATYYCARIVKVLEQYFDVWGTGTTVTVSS
VL: DIMMTQSHKFMSTSVGDRVIFTCKASQDVGTAVAWYQQKSGQSPKLLIYWASTRHTGVPDRFTGSGSGTDFTLTISNVQSEDLADYFCQQYTSYPLTFGAGTKLELK
notes: Mouse IgG1 / kappa; also called 42C2 mIgG; 42C2 mAB
As to B6, the binding result in assay [8] is recorded as “no binding”. Besides, in assay [5], the binding result was “binds”. In addition, the “hMPV/A neutralization assay titer, supernatant” value in assay [4] is over 5 log2. In addition, in assay [2], the “IC50, final serum dilution” value worked out at 0.0977 mg/L; the “IC50, original serum dilution” value came to 0.391 mg/L; the “hMPV/A RL Bx Titer (Log 2), microneutralization assay” value is 9 log2.

B7: 42C2 hIgG1 (antibody, V domains shown)
VH: QVTLKESGPGILQPSQTLSLTCSFSGFSLSTFGMGVVWTRQPSGKGLEWLAHIWWDDDNYYNPALKSRLTISKDTSKNQVFLKIANADTADTATYYCARIVKVLEQYFDVWGTGTTVTVSS
VL: DIMMTQSHKFMSTSVGDRVIFTCKASQDVGTAVAWYQQKSGQSPKLLIYWASTRHTGVPDRFTGSGSGTDFTLTISNVQSEDLADYFCQQYTSYPLTFGAGTKLELKR
notes: as for B5
With B7, the binding result in assay [8] is given as “no binding”. In addition, the binding result in assay [7] is reported as “binds”. Also, in assay [2], the “IC50, final serum dilution” value was 0.0691 mg/L; the “IC50, original serum dilution” value is 0.276 mg/L; the “hMPV/A RL Bx Titer (Log 2), microneutralization assay” value was 9.5 log2.

These data come from US20260092100A1 (ICOSAVAX, published 2026).
